# Measurements: US20120270784A1 (THERATECHNOLOGIES, published 2012)
# Where no end group is shown, it is not given here.
# T1: human GRF receptor (human, UniProt Q02643 23-423)
# T1 sequence (looked up): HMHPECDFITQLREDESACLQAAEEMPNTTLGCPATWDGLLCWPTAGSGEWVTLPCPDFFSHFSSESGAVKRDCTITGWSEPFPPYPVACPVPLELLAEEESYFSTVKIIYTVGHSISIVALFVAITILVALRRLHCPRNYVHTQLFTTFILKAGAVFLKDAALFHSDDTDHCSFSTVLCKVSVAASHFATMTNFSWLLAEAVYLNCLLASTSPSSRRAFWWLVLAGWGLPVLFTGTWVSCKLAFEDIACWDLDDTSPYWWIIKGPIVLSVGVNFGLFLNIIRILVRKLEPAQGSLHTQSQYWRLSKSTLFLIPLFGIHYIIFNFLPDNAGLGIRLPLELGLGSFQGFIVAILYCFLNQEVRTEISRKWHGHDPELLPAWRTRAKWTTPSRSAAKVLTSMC
# Molecular target: T1, human GRF receptor
# Assay: cell-based or functional assay
row,Binder,EC50 as assessed by alkaline phosphatase (AP) induction [nM]
1,YGDAIFTDSYRKVLAQLKARQDILARAARAARX (HELM PEPTIDE1{Y.G.D.A.I.F.T.D.S.Y.R.K.V.L.A.Q.L.K.A.R.Q.D.I.L.A.R.A.A.R.A.A.R.[O=C([C@H](CCO)N[*:1])[*:2]].[am]}$$$$V2.0; N-terminus assumed; SMILES CC[C@H](C)[C@H](NC(=O)[C@H](C)NC(=O)[C@H](CC(=O)O)NC(=O)CNC(=O)[C@@H](N)Cc1ccc(O)cc1)C(=O)N[C@@H](Cc1ccccc1)C(=O)N[C@H](C(=O)N[C@@H](CC(=O)O)C(=O)N[C@@H](CO)C(=O)N[C@@H](Cc1ccc(O)cc1)C(=O)N[C@@H](CCCNC(=N)N)C(=O)N[C@@H](CCCCN)C(=O)N[C@H](C(=O)N[C@@H](CC(C)C)C(=O)N[C@@H](C)C(=O)N[C@@H](CCC(N)=O)C(=O)N[C@@H](CC(C)C)C(=O)N[C@@H](CCCCN)C(=O)N[C@@H](C)C(=O)N[C@@H](CCCNC(=N)N)C(=O)N[C@@H](CCC(N)=O)C(=O)N[C@@H](CC(=O)O)C(=O)N[C@H](C(=O)N[C@@H](CC(C)C)C(=O)N[C@@H](C)C(=O)N[C@@H](CCCNC(=N)N)C(=O)N[C@@H](C)C(=O)N[C@@H](C)C(=O)N[C@@H](CCCNC(=N)N)C(=O)N[C@@H](C)C(=O)N[C@@H](C)C(=O)N[C@@H](CCCNC(=N)N)C(=O)N[C@@H](CCO)C(N)=O)[C@@H](C)CC)C(C)C)[C@@H](C)O) [YGDAIFTDSYRKVLAQLKARQDILARAARAAR-HoSer-NH2 (SEQ ID NO: 36)],0.2
2,YXDAIFTDSYRKVLAQLKARQDILARAARAARX (HELM PEPTIDE1{Y.[dA].D.A.I.F.T.D.S.Y.R.K.V.L.A.Q.L.K.A.R.Q.D.I.L.A.R.A.A.R.A.A.R.[O=C([C@H](CCO)N[*:1])[*:2]].[am]}$$$$V2.0; N-terminus assumed; SMILES CC[C@H](C)[C@H](NC(=O)[C@H](C)NC(=O)[C@H](CC(=O)O)NC(=O)[C@@H](C)NC(=O)[C@@H](N)Cc1ccc(O)cc1)C(=O)N[C@@H](Cc1ccccc1)C(=O)N[C@H](C(=O)N[C@@H](CC(=O)O)C(=O)N[C@@H](CO)C(=O)N[C@@H](Cc1ccc(O)cc1)C(=O)N[C@@H](CCCNC(=N)N)C(=O)N[C@@H](CCCCN)C(=O)N[C@H](C(=O)N[C@@H](CC(C)C)C(=O)N[C@@H](C)C(=O)N[C@@H](CCC(N)=O)C(=O)N[C@@H](CC(C)C)C(=O)N[C@@H](CCCCN)C(=O)N[C@@H](C)C(=O)N[C@@H](CCCNC(=N)N)C(=O)N[C@@H](CCC(N)=O)C(=O)N[C@@H](CC(=O)O)C(=O)N[C@H](C(=O)N[C@@H](CC(C)C)C(=O)N[C@@H](C)C(=O)N[C@@H](CCCNC(=N)N)C(=O)N[C@@H](C)C(=O)N[C@@H](C)C(=O)N[C@@H](CCCNC(=N)N)C(=O)N[C@@H](C)C(=O)N[C@@H](C)C(=O)N[C@@H](CCCNC(=N)N)C(=O)N[C@@H](CCO)C(N)=O)[C@@H](C)CC)C(C)C)[C@@H](C)O) [Y-a-DAIFTDSYRKVLAQLKARQDILARAARAAR-HoSer-NH2 (SEQ ID NO: 37)],0.2
3,YLDAIFTDSYRKVLAQLKARQDILARAARAAR-NH2 [YLDAIFTDSYRKVLAQLKARQDILARAARAAR-NH2 (SEQ ID NO: 35)],2.52
4,YADAIFTDSYRKVLAQLSARQDIMSR (HELM PEPTIDE1{[CC/C=C/CC(=O)[*:2]].Y.A.D.A.I.F.T.D.S.Y.R.K.V.L.A.Q.L.S.A.R.Q.D.I.M.S.R.[am]}$$$$V2.0; SMILES CC/C=C/CC(=O)N[C@@H](Cc1ccc(O)cc1)C(=O)N[C@@H](C)C(=O)N[C@@H](CC(=O)O)C(=O)N[C@@H](C)C(=O)N[C@H](C(=O)N[C@@H](Cc1ccccc1)C(=O)N[C@H](C(=O)N[C@@H](CC(=O)O)C(=O)N[C@@H](CO)C(=O)N[C@@H](Cc1ccc(O)cc1)C(=O)N[C@@H](CCCNC(=N)N)C(=O)N[C@@H](CCCCN)C(=O)N[C@H](C(=O)N[C@@H](CC(C)C)C(=O)N[C@@H](C)C(=O)N[C@@H](CCC(N)=O)C(=O)N[C@@H](CC(C)C)C(=O)N[C@@H](CO)C(=O)N[C@@H](C)C(=O)N[C@@H](CCCNC(=N)N)C(=O)N[C@@H](CCC(N)=O)C(=O)N[C@@H](CC(=O)O)C(=O)N[C@H](C(=O)N[C@@H](CCSC)C(=O)N[C@@H](CO)C(=O)N[C@@H](CCCNC(=N)N)C(N)=O)[C@@H](C)CC)C(C)C)[C@@H](C)O)[C@@H](C)CC) [Trans-3-hexenoyl-YADAIFTDSYRKVLAQLSARQDIMSR-NH2 (SEQ ID NO: 44)],9.73
5,YADAIFTDSYRKVLAQLSARQDILSX (HELM PEPTIDE1{[CC/C=C/CC(=O)[*:2]].Y.A.D.A.I.F.T.D.S.Y.R.K.V.L.A.Q.L.S.A.R.Q.D.I.L.S.[dR].[am]}$$$$V2.0; SMILES CC/C=C/CC(=O)N[C@@H](Cc1ccc(O)cc1)C(=O)N[C@@H](C)C(=O)N[C@@H](CC(=O)O)C(=O)N[C@@H](C)C(=O)N[C@H](C(=O)N[C@@H](Cc1ccccc1)C(=O)N[C@H](C(=O)N[C@@H](CC(=O)O)C(=O)N[C@@H](CO)C(=O)N[C@@H](Cc1ccc(O)cc1)C(=O)N[C@@H](CCCNC(=N)N)C(=O)N[C@@H](CCCCN)C(=O)N[C@H](C(=O)N[C@@H](CC(C)C)C(=O)N[C@@H](C)C(=O)N[C@@H](CCC(N)=O)C(=O)N[C@@H](CC(C)C)C(=O)N[C@@H](CO)C(=O)N[C@@H](C)C(=O)N[C@@H](CCCNC(=N)N)C(=O)N[C@@H](CCC(N)=O)C(=O)N[C@@H](CC(=O)O)C(=O)N[C@H](C(=O)N[C@@H](CC(C)C)C(=O)N[C@@H](CO)C(=O)N[C@H](CCCNC(=N)N)C(N)=O)[C@@H](C)CC)C(C)C)[C@@H](C)O)[C@@H](C)CC) [Trans-3-hexenoyl-YADAIFTDSYRKVLAQLSARQDILS-r-NH2 (SEQ ID NO: 46)],15.1
6,YGDAIFTDSYRKVLAQLKARQDILARAARAAR-NH2 [YGDAIFTDSYRKVLAQLKARQDILARAARAAR-NH2 (SEQ ID NO: 34)],0.2
7,YADAIFTDSYRKVLAQLKARQDILAR (HELM PEPTIDE1{[CC/C=C/CC(=O)[*:2]].Y.A.D.A.I.F.T.D.S.Y.R.K.V.L.A.Q.L.K.A.R.Q.D.I.L.A.R.[am]}$$$$V2.0; SMILES CC/C=C/CC(=O)N[C@@H](Cc1ccc(O)cc1)C(=O)N[C@@H](C)C(=O)N[C@@H](CC(=O)O)C(=O)N[C@@H](C)C(=O)N[C@H](C(=O)N[C@@H](Cc1ccccc1)C(=O)N[C@H](C(=O)N[C@@H](CC(=O)O)C(=O)N[C@@H](CO)C(=O)N[C@@H](Cc1ccc(O)cc1)C(=O)N[C@@H](CCCNC(=N)N)C(=O)N[C@@H](CCCCN)C(=O)N[C@H](C(=O)N[C@@H](CC(C)C)C(=O)N[C@@H](C)C(=O)N[C@@H](CCC(N)=O)C(=O)N[C@@H](CC(C)C)C(=O)N[C@@H](CCCCN)C(=O)N[C@@H](C)C(=O)N[C@@H](CCCNC(=N)N)C(=O)N[C@@H](CCC(N)=O)C(=O)N[C@@H](CC(=O)O)C(=O)N[C@H](C(=O)N[C@@H](CC(C)C)C(=O)N[C@@H](C)C(=O)N[C@@H](CCCNC(=N)N)C(N)=O)[C@@H](C)CC)C(C)C)[C@@H](C)O)[C@@H](C)CC) [Trans-3-hexenoyl-YADAIFTDSYRKVLAQLKARQDILAR-NH2 (SEQ ID NO: 20)],0.98
8,YXDAIFTDSYRKVLAQLKARQDILSX (HELM PEPTIDE1{Y.[dA].D.A.I.F.T.D.S.Y.R.K.V.L.A.Q.L.K.A.R.Q.D.I.L.S.[dR].[am]}$$$$V2.0; N-terminus assumed; SMILES CC[C@H](C)[C@H](NC(=O)[C@H](C)NC(=O)[C@H](CC(=O)O)NC(=O)[C@@H](C)NC(=O)[C@@H](N)Cc1ccc(O)cc1)C(=O)N[C@@H](Cc1ccccc1)C(=O)N[C@H](C(=O)N[C@@H](CC(=O)O)C(=O)N[C@@H](CO)C(=O)N[C@@H](Cc1ccc(O)cc1)C(=O)N[C@@H](CCCNC(=N)N)C(=O)N[C@@H](CCCCN)C(=O)N[C@H](C(=O)N[C@@H](CC(C)C)C(=O)N[C@@H](C)C(=O)N[C@@H](CCC(N)=O)C(=O)N[C@@H](CC(C)C)C(=O)N[C@@H](CCCCN)C(=O)N[C@@H](C)C(=O)N[C@@H](CCCNC(=N)N)C(=O)N[C@@H](CCC(N)=O)C(=O)N[C@@H](CC(=O)O)C(=O)N[C@H](C(=O)N[C@@H](CC(C)C)C(=O)N[C@@H](CO)C(=O)N[C@H](CCCNC(=N)N)C(N)=O)[C@@H](C)CC)C(C)C)[C@@H](C)O) [Y-a-DAIFTDSYRKVLAQLKARQDILS-r-NH2 (SEQ ID NO: 21)],2.47
9,YADAIFTDSYRKVLAQLSARQDILAR (HELM PEPTIDE1{[CC/C=C/CC(=O)[*:2]].Y.A.D.A.I.F.T.D.S.Y.R.K.V.L.A.Q.L.S.A.R.Q.D.I.L.A.R.[am]}$$$$V2.0; SMILES CC/C=C/CC(=O)N[C@@H](Cc1ccc(O)cc1)C(=O)N[C@@H](C)C(=O)N[C@@H](CC(=O)O)C(=O)N[C@@H](C)C(=O)N[C@H](C(=O)N[C@@H](Cc1ccccc1)C(=O)N[C@H](C(=O)N[C@@H](CC(=O)O)C(=O)N[C@@H](CO)C(=O)N[C@@H](Cc1ccc(O)cc1)C(=O)N[C@@H](CCCNC(=N)N)C(=O)N[C@@H](CCCCN)C(=O)N[C@H](C(=O)N[C@@H](CC(C)C)C(=O)N[C@@H](C)C(=O)N[C@@H](CCC(N)=O)C(=O)N[C@@H](CC(C)C)C(=O)N[C@@H](CO)C(=O)N[C@@H](C)C(=O)N[C@@H](CCCNC(=N)N)C(=O)N[C@@H](CCC(N)=O)C(=O)N[C@@H](CC(=O)O)C(=O)N[C@H](C(=O)N[C@@H](CC(C)C)C(=O)N[C@@H](C)C(=O)N[C@@H](CCCNC(=N)N)C(N)=O)[C@@H](C)CC)C(C)C)[C@@H](C)O)[C@@H](C)CC) [Trans-3-hexenoyl-YADAIFTDSYRKVLAQLSARQDILAR-NH2 (SEQ ID NO: 45)],7.55
